The labels stand for the following.
T1: Tom20 (human (endogenous in fibroblasts and …, UniProt Q15388 1-145))
T1 construct: Tom20, mitochondria-specific marker, human, endogenous; source: endogenous, in fibroblasts and iPSC-derived motor neurons
T1 sequence (looked up): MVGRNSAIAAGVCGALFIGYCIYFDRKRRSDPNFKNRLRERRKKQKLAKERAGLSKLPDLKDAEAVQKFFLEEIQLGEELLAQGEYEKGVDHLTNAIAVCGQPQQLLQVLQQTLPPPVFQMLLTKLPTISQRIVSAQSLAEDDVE

B1: Fused in Sarcoma (FUS), endogenous wild type (natural protein, UniProt P35637 1-526, looked up)
chain: MASNDYTQQATQSYGAYPTQPGQGYSQQSSQPYGQQSYSGYSQSTDTSGYGQSSYSSYGQSQNTGYGTQSTPQGYGSTGGYGSSQSSQSSYGQQSSYPGYGQQPAPSSTSGSYGSSSQSSSYGQPQSGSYSQQPSYGGQQQSYGQQQSYNPPQGYGQQNQYNSSSGGGGGGGGGGNYGQDQSSMSSGGGSGGGYGNQDQSGGGGSGGYGQQDRGGRGRGGSGGGGGGGGGGYNRSSGGYEPRGRGGGRGGRGGMGGSDRGGFNKFGGPRDQGSRHDSEQDNSDNNTIFVQGLGENVTIESVADYFKQIGIIKTNKKTGQPMINLYTDRETGKLKGEATVSFDDPPSAKAAIDWFDGKEFSGNPIKVSFATRRADFNRGGGNGRGGRGRGGPMGRGGYGGGGSGGGGRGGFPSGGGGGGGQQRAGDWKCPNPTCENMNFSWRNECNQCKAPKPDGPGGGPGGSHMGGNYGDDRRGGRGGYDRGGYRGRGGDRGGFRGGRGGGDRGGFGPGKMDSRGEHRQDRRERPY
notes: Fused in Sarcoma (FUS), human, endogenous wild type; also called FUS WT; WT FUS; source: endogenous, in HEK293 cells, control fibroblasts, iPSC-derived motor neurons and NPSCs
B2: FUS R521H, endogenous mutant of ALS patient-derived cells (natural protein, UniProt P35637 1-526, looked up)
chain: B1 chain with R521H
notes: Fused in Sarcoma (FUS), human, with the ALS patient mutation R521H; source: endogenous, in ALS patient-derived fibroblasts and iPSC-derived motor neurons
B3: FUS P525L, endogenous mutant of ALS patient-derived cells (natural protein, UniProt P35637 1-526, looked up)
chain: B1 chain with P525L
notes: Fused in Sarcoma (FUS), human, with the ALS patient mutation P525L; source: endogenous, in ALS patient-derived fibroblasts, iPSC-derived motor neurons and NPSCs
B4: mtDNA Ligase IIIα (mtLig3) (enzyme, UniProt P49916 43-1009, looked up)
chain: LLHGHPLFLRRKPVLSFQGSHLRSRATYLVFLPGLHVGLCSGPCEMAEQRFCVDYAKRGTAGCKKCKEKIVKGVCRIGKVVPNPFSESGGDMKEWYHIKCMFEKLERARATTKKIEDLTELEGWEELEDNEKEQITQHIADLSSKAAGTPKKKAVVQAKLTTTGQVTSPVKGASFVTSTNPRKFSGFSAKPNNSGEAPSSPTPKRSLSSSKCDPRHKDCLLREFRKLCAMVADNPSYNTKTQIIQDFLRKGSAGDGFHGDVYLTVKLLLPGVIKTVYNLNDKQIVKLFSRIFNCNPDDMARDLEQGDVSETIRVFFEQSKSFPPAAKSLLTIQEVDEFLLRLSKLTKEDEQQQALQDIASRCTANDLKCIIRLIKHDLKMNSGAKHVLDALDPNAYEAFKASRNLQDVVERVLHNAQEVEKEPGQRRALSVQASLMTPVQPMLAEACKSVEYAMKKCPNGMFSEIKYDGERVQVHKNGDHFSYFSRSLKPVLPHKVAHFKDYIPQAFPGGHSMILDSEVLLIDNKTGKPLPFGTLGVHKKAAFQDANVCLFVFDCIYFNDVSLMDRPLCERRKFLHDNMVEIPNRIMFSEMKRVTKALDLADMITRVIQEGLEGLVLKDVKGTYEPGKRHWLKVKKDYLNEGAMADTADLVVLGAFYGQGSKGGMMSIFLMGCYDPGSQKWCTVTKCAGGHDDATLARLQNELDMVKISKDPSKIPSWLKVNKIYYPDFIVPDPKKAAVWEITGAEFSKSEAHTADGISIRFPRCTRIRDDKDWKSATNLPQLKELYQLSKEKADFTVVAGDEGSSTTGGSSEENKGPSGSAVSRKAPSKPSASTKKAEGKLSNSNSKDGNMQTAKPSAMKVGEKLATKSSPVKVGEKRKAADETLCQTKVLLDIFTGVRLYLPPSTPDFSRLRRYFVAFDGDLVQEFDMTSATHVLGSRDKNPAAQQVSPEWIWACIRKRRLVAPC
notes: DNA ligase IIIα, human, endogenous; also called LigIII; mitochondrial version of Lig3; source: endogenous, in HEK293 cells, fibroblasts, iPSC-derived motor neurons and NPSCs

Where a chain is given by its changes, count along the chain named. Names may count otherwise.

Holding throughout (conditions): partners not purified
The target of assay [1] is T1, Tom20. Put plainly: proximity ligation; Duolink in situ PLA on fixed, permeabilised control and patient iPSC-derived motor neurons (Fig. 1e, 4e); with or without GO; MitoTracker green counterstain; foci counted in 25 cells.
The target in assay [2] is T1, Tom20. Put plainly: proximity ligation; Duolink in situ PLA on fixed, permeabilised cells with anti-FUS and anti-Tom20 or anti-HSP60; patient derived fibroblasts and motor neurons (Fig. 1c, d; the panel's cell type is not told); untreated or glucose oxidase (GO).
A further assay deals with T2, HSP60 (human (endogenous in fibroblasts and …, UniProt P10809 27-573)).
T2 construct: HSP60, mitochondria-specific marker, human, endogenous; source: endogenous, in fibroblasts and motor neurons
The assay is described as above.

The target in assay [3] is B1. Put plainly: proximity ligation; Duolink in situ PLA on fixed, permeabilised control and patient iPSC-derived motor neurons (Fig. 1e, 4e); with or without GO; MitoTracker green counterstain; foci counted in 25 cells.
Assay [4] deals with B2. Described as above.
Assay [5] concerns the target B3. The assay is described as above.

The source of these data is PMC10925063, “FUS unveiled in mitochondrial DNA repair and targeted ligase-1 expression rescues repair-defects in FUS-linked motor neuron disease” (Nature Communications, 2024).

T2 sequence (P10809 27-573): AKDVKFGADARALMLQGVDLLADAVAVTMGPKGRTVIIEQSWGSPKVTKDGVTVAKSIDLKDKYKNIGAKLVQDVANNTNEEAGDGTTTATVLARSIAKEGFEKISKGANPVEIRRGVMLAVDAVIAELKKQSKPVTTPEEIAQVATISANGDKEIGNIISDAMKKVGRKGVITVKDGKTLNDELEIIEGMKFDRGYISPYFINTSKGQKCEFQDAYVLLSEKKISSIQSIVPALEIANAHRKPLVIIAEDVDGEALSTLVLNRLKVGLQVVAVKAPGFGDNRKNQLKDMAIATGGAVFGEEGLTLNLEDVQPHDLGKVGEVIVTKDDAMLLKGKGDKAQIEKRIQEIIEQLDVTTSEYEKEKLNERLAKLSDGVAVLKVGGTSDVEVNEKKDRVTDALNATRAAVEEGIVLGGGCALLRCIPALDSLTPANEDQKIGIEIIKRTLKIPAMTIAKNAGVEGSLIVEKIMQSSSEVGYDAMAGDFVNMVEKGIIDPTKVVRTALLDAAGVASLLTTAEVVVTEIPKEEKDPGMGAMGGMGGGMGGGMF

Consider B1, for which the results for the “PLA foci, median (GO)” value with Tom20 [1] and with HSP60 were 4 PLA foci and 36 PLA foci, respectively. In addition, the “PLA foci, median (untreated)” value with Tom20 [1] worked out at 1 PLA foci; with Tom20 [2], 24 PLA foci; with HSP60 it was 12 PLA foci.

As for B2, the results for the “PLA foci, median (GO)” value in the assay with Tom20 [1] and with HSP60 were 9 PLA foci and 56 PLA foci, respectively. Moreover, the “PLA foci, median (untreated)” value with Tom20 [1] came to 4 PLA foci; with Tom20 [2], 89 PLA foci; in the assay with HSP60 it was 27 PLA foci.

On to B3, for which the entries for the “PLA foci, median (GO)” value in the assay with Tom20 [1] and with HSP60 were 13 PLA foci and 64 PLA foci, respectively. The “PLA foci, median (untreated)” value with Tom20 [1] worked out at 4 PLA foci; with Tom20 [2], 218 PLA foci; in the assay with HSP60, 51 PLA foci.

For B4, the results for the “PLA foci, median (GO)” value in assay [3], in assay [4] and in assay [5] were 8 PLA foci, 4 PLA foci and 2 PLA foci, respectively.
